Results as given in patent US20020115066A1, “Viral therapeutics” (priority 1998, published 2002).
Peptide text beside a SMILES is read from it. * marks the point of attachment. Cbz = O=C(OCc1ccccc1)*

Assays:
proteasome = test: Western blot of core protein after treatment with proteasome inhibitor MG132; assay type: cell-based, hamster; details: cells electroporated with pSFV.1-124, 145-152; MG132 2.5 μM from 4 hours after electroporation, harvested at 16 hours
Method: A. Western Blot analysis of extracts prepared from cells which were harvested 16 hours after electroporation following treatment with proteasomal inhibitor MG132. Aliquots of extracts containing the same number of cell equivalents were analyzed with antibody JM122. The samples were from cells electroporated with RNA from the following constructs: lanes 1 and 2, PSFV.1-195; lanes 3 and 4, pSFV.1-124, 145-152; lanes 5 and 6, pSFV.Δ125-144; lanes 7 and 8, pSFV.1-153; lanes 9 and 10, no RNA. Samples in lanes with odd numbers were prepared from cells not treated with MG132. Samples in lanes with even numbers were prepared from cells which had been incubated in the presence of MG132 (final concentration 2.5 μM) from 4 hours after electroporation.
For Western blot analysis, proteins were separated on polyacrylamide gels and transferred to nitrocellulose membrane using standard techniques. The nitrocellulose membrane was blocked in 3% gelatin, 20 mM Tris (pH 7.5), 500 mM NaCl for at least 6 hours at 37° C. prior to incubation with the primary antibody. Incubations with the primary antibody (diluted to 1/500for adipophilin antibody and 1/1000for JM122) were performed in 1% gelatin, 20 mM Tris (pH 7.5), 500 mM NaCl, 0.05% Tween 20 at either room temperature or 37° C. for approximately 3-4 hours. […] Bound antibody was detected by enhanced chemiluminescence.

lipid droplets = test: Intracellular localization of tagged GBV-B and HCV core proteins (Example 10); assay type: cell-based, hamster; details: BHK cells, epitope tag detected with antibody 9220 or JM122, oil red O
From the text: To express portions of the GBV-B polyprotein, relevant regions were amplified by PCR from a construct pGBB (30). pGBB contains the consensus sequence for an infectious molecular clone of GBV-B (30). Primers for PCR amplification were derived from the viral sequences in pGBB and were used in the following pairs to produce DNA fragments that encoded N-terminal regions of the GBV-B polyprotein: residues 1-141, GBV-B primers 1 and 2; residues 1-194, GBV-B primers 1 and 3; residues 1-398, GBV-B primers 1 and 4. Amplified fragments were introduced initially into plasmid pGEM1 and thereafter into pSFV1 by standard cloning techniques. To permit detection of GBV-B core, an epitope tag (32) was introduced into the coding region immediately following amino acid residue 85 (FIG. 7). […] An oligonucleotide encoding the epitope tag (GBV-B5 in Table 1) was inserted between this XbaI site and a TfiI site (position 708 in the native GBV-B nucleotide sequence). The final SFV constructs that contained tagged versions of GBV-B core were termed pSFV/GB1-141, pSFV/GB1-194 and pSFV/GB1-398. […]
Cells on 13 mm coverslips were fixed for 30 min in 4% paraformaldehyde, 0.1% Triton X-100 (prepared in phosphate-buffered saline) at 4° C. […] Samples were analyzed using a Zeiss LSM confocal microscope.

Molecule | increase in the amount of protein detected by Western blot analysis (proteasome) [fold] | intracellular localization relative to lipid droplets (lipid droplets)
CC(C)C[C@@H](C=O)NC(=O)[C@H](CC(C)C)NC(=O)[C@H](CC(C)C)NC(=O)OCc1ccccc1 [MG132] (Cbz-Leu-Leu-Leu-aldehyde) | 4 | –
pSFV/GB1-141: SFV construct with epitope-tagged GBV-B core, residues 1-141 of the GBV-B polyprotein (protein, left off: small tags and cut ends) MPVISTQTSPVPAPRTRKNKQTQASYPVSIKTSVERGQRAKRKVQRDARPRNYKIAGIHDGLQTLAQAALPAHGWGRQDPRHKSRNLGILLDYPLGWIGDVTTHTPLVGPLVAGAVVRPVCQIVRLLEDGVNWATGWFGVH | – | localization of the protein around lipid droplets
pSFV/GB1-398: SFV construct with epitope-tagged GBV-B core, residues 1-398 of the GBV-B polyprotein (protein, left off: small tags and cut ends) MPVISTQTSPVPAPRTRKNKQTQASYPVSIKTSVERGQRAKRKVQRDARPRNYKIAGIHDGLQTLAQAALPAHGWGRQDPRHKSRNLGILLDYPLGWIGDVTTHTPLVGPLVAGAVVRPVCQIVRLLEDGVNWATGWFGVHLFVVCLLSLACPCSGARVTDPDTNTTILTNCCQRNQVIYCSPSTCLHEPGCVICADECWVPANPYISHPSNWTGTDSFLADHIDFVMGALVTCDALDIGELCGACVLVGDWLVRHWLIHIDLNETGTCYLEVPTGIDPGFLGFIGWMAGKVEAVIFLTKLASQVPYAIATMFSSVHYLAVGALIYYASRGKWYQLLLALMLYIEATSGNPIRVPTGCSIAEFCSPLMIPCPCHSYLSENVSEVICYSPKWTRPVTLE | – | staining around lipid droplets
